# Results as given in patent publication US20080219970A1 (published 2008).
# T1: high molecular weight kininogen (UniProt P01042 19-644)
# T1 construct: also called HMWK
# T1 sequence (looked up): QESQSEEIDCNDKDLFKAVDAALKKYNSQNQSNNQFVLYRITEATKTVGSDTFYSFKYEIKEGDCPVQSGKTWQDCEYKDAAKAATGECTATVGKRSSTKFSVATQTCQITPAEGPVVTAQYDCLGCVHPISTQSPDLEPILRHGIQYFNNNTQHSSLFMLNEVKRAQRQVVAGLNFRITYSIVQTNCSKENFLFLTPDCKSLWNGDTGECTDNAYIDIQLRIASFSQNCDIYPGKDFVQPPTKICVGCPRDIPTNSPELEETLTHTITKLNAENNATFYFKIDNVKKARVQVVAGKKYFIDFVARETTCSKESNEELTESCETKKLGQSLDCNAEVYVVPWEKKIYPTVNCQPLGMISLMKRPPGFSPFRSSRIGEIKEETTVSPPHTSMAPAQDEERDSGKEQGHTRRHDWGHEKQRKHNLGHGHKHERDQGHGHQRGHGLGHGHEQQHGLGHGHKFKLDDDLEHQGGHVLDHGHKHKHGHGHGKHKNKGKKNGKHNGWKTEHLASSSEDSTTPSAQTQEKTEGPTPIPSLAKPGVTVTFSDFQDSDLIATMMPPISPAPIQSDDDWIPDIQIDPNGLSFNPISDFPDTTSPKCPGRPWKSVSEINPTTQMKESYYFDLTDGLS
# T2: factor VIIa (UniProt P08709 61-466)
# T2 construct: also called fVIIa; FVIIa
# T2 sequence (looked up): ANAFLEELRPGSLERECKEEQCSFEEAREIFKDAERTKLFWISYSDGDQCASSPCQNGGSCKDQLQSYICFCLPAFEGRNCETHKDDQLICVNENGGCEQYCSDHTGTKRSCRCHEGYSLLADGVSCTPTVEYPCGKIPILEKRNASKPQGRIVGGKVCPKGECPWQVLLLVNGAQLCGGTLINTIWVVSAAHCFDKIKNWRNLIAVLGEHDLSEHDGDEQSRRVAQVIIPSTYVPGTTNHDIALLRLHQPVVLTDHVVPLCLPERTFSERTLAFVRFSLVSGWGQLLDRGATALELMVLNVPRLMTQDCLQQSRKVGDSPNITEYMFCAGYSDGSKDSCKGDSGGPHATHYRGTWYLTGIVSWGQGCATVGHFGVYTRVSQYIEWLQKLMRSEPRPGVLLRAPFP
# B1: Ir-CPI (Ixodes ricinus Contact Phase Inhibitor), recombinant, without its peptide signal (other)
# chain: ANHKGRGRPAKCKLPPDDGPCRARIPSYYFDRKTKTCKEFMYGGCEGNENNFENITTCQEECRAKKV
# notes: Immobilized on a CM5 chip by amine coupling for SPR; also called recombinant Ir-CPI
# Assays:
# kallikrein = target: T3, kallikrein (UniProt P03952 20-638); experiment: SPR kinetics (BIAcore 3000), Ir-CPI immobilized at about 200 RU, analyte at 6 concentrations from 5 nM to 300 nM
# T3 construct: also called plasma kallikrein
# Protocol: Interaction kinetics were determined, for each analyte, with 6 different concentrations (from 5 nM to 300 nM). Binding data were analyzed using BIA evaluation software to determine the kinetic constants.
# The ability of Ir-CPI to bind a (co)factor of coagulation or fibrinolysis was evaluated by surface plasmon resonance. […] Moreover, the kinetics of interaction between Ir-CPI and the four target factors (XIIa, XIa, plasmin and kallikrein) were measured after a new immobilization of Ir-CPI. In experiments to determine the binding kinetics, the quantity of immobilized Ir-CPI was deliberately kept at a low level (approximately 200 RU) in order to avoid problems where the reaction rate is limited by mass-transport. […] Interaction kinetics were determined for each analyte, at 6 different concentrations (from 5 nM to 300 nM). The kinetic data obtained were individually processed with BIA evaluation software in order to determine the kinetics constants. […] FIG. 9 represents sensorgrams for interactions between coagulation factors and immobilized Ir-CPI measured by surface plasmon resonance. Ir-CPI was immobilized onto the surface of a sensor chip CM5 at level of 1500 resonance units (RUs). Contact factors (100 nM final concentration) were injected at a flow rate of 70 μl/min in HBS buffer, and association was monitored. After return to buffer flow, dissociation was monitored during 84 s. […]
# [1] = target: T1, high molecular weight kininogen; experiment: SPR (BIAcore 3000), Ir-CPI immobilized on CM5 chip, factor injected as analyte
# Protocol: (§1) The interaction between Ir-CPI and coagulation or fibrinolytic factors was monitored using a BIAcore 3000 instrument (BIAcore AB, Sweden). Ir-CPI (15 μM) was immobilized on the surface of a CM5 sensor chip in 10 mM acetate buffer, pH 5.0, by the amine coupling procedure according to the manufacturer's instructions. 1500 resonance units (RU) of immobilized Ir-CPI were used for the assay. To subtract the non-specific component from the apparent binding response, a blank flow cell was prepared using the same immobilizing procedure without Ir-CPI. Binding analyses were carried out using HBS buffer (HEPES10 mM, NaCl 150 mM, EDTA 3 mM; pH 7.4 with 0.005% surfactant P20) as running buffer at 25° C. 100 μl of each analyte (100 nM) was injected on the sensor chip at a flow rate of 70 μl/min. Association was monitored during an 84 s injection of analyte. Dissociation was monitored for 3 min after return to the running buffer.
# (§2) The ability of Ir-CPI to bind a (co)factor of coagulation or fibrinolysis was evaluated by surface plasmon resonance. […] Moreover, the kinetics of interaction between Ir-CPI and the four target factors (XIIa, XIa, plasmin and kallikrein) were measured after a new immobilization of Ir-CPI. In experiments to determine the binding kinetics, the quantity of immobilized Ir-CPI was deliberately kept at a low level (approximately 200 RU) in order to avoid problems where the reaction rate is limited by mass-transport. […] Interaction kinetics were determined for each analyte, at 6 different concentrations (from 5 nM to 300 nM). The kinetic data obtained were individually processed with BIA evaluation software in order to determine the kinetics constants.
# thrombin = thrombin (UniProt P00734 328-622); experiment: as above
# Protocol: as §1, §2
# factor IX = target: T4, factor IX (UniProt P00740 47-461); experiment: as above
# T4 construct: also called fIX
# Protocol: as §1, §2
# factor VIIa = target: T2, factor VIIa; experiment: as above
# Protocol: as §1, §2
# factor X = target: T5, factor X (UniProt P00742 41-488); experiment: as above
# T5 construct: also called fX
# Protocol: as §1, §2
# plasminogen = plasminogen (UniProt P00747 20-810, limits assumed); experiment: as above
# Protocol: as §1, §2
# t-PA = t-PA (UniProt P00750 36-562); experiment: as above
# Protocol: as §1, §2
# factor IXa = target: T6, factor IXa (UniProt P00740 47-191; P00740 227-461); experiment: as above
# T6 construct: read as fIXa; also called FIXa
# Protocol: as §1, §2
# T3 sequence (P03952 20-638 limits assumed): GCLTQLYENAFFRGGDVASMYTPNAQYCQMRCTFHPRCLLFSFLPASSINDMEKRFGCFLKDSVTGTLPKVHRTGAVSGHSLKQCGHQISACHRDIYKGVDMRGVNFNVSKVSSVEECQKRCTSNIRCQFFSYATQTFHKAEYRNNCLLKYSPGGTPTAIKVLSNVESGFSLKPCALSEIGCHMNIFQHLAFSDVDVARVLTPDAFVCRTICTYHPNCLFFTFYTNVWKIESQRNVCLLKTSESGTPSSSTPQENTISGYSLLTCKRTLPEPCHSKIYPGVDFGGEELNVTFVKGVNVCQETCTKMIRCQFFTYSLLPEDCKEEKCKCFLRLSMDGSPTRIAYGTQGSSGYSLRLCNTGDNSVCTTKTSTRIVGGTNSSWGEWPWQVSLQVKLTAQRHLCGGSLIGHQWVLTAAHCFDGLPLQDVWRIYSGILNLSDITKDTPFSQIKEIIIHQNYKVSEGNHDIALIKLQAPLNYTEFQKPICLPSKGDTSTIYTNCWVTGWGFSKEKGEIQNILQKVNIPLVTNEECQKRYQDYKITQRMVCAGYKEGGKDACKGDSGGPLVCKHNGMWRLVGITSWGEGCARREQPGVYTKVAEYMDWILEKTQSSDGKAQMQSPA
# Sequence of plasminogen (P00747 20-810 limits assumed): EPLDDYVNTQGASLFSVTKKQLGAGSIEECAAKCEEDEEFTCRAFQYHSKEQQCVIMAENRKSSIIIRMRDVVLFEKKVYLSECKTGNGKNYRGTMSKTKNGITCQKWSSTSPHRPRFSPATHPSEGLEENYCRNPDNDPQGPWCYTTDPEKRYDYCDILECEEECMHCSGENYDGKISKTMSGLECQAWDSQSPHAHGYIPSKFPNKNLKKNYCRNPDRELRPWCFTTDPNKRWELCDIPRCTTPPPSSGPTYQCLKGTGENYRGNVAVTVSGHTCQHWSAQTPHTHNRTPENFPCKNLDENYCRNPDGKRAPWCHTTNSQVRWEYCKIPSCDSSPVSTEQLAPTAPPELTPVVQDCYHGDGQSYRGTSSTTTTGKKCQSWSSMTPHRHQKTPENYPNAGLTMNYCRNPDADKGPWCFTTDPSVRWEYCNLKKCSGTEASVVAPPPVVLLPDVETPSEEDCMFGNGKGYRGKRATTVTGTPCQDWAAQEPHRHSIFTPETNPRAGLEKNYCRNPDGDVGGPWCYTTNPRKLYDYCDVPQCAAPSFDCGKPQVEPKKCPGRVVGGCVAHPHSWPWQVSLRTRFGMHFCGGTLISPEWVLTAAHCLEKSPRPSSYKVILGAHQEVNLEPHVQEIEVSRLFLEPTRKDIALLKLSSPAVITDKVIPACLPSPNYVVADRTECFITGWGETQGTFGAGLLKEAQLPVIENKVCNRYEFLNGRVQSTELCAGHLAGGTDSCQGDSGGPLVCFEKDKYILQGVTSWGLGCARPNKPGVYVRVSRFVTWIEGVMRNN
# Sequence of t-PA (P00750 36-562 limits assumed): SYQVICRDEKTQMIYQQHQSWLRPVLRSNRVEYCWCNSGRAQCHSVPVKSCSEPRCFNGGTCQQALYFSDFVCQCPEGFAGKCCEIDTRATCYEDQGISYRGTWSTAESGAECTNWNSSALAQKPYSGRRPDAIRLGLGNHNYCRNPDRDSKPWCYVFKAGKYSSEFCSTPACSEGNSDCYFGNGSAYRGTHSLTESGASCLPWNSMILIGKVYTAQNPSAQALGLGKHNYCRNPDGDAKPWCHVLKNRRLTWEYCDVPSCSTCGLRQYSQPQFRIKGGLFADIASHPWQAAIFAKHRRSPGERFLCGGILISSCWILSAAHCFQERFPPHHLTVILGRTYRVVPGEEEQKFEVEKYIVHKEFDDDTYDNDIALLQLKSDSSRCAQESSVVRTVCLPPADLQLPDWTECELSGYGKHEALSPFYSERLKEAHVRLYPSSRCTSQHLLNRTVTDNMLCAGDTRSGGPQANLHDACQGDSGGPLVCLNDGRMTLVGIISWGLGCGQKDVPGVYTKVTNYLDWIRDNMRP
binder,measurement,setting,value
B1,Kd,kallikrein,200 nM
same,binding result,[1],no binding (tested: 100 nM)
same,binding result,thrombin,no binding (tested: 100 nM)
same,binding result,factor IX,no binding (tested: 100 nM)
same,binding result,factor VIIa,no binding (tested: 100 nM)
same,binding result,factor X,no binding (tested: 100 nM)
same,binding result,plasminogen,no binding (tested: 100 nM)
same,binding result,t-PA,no binding (tested: 100 nM)
same,binding result,factor IXa,no binding (tested: 100 nM)
